In article PMC6044281, “Cooperative Domain Formation by Homologous Motifs in HOIL-1L and SHARPIN Plays A Crucial Role in LUBAC Stabilization” (Cell reports, 2018):

B1: mHOIL-1L_(1–140) and mSHARPIN_(163–301) applied together [mouse] / GST-mHOIP_(466–630) [mouse] (parent complex)
chain 1: MDEKTKKAEEMALSLARAVAGGDEQAAIKYATWLAEQRVPLRVQVKPEVSPTQDIRLCVSVEDAYMHTVTIWLTVRPDMTVASLKDMVFLDYGFPPSLQQWVVGQRLARDQETLHSHGIRRNGDGAYLYLLSARNTSLNP
chain 2: SSGNFKKEELATRLSQAIAGGDEKAAAQVAAVLAQHHVALNVQLMEAWFPPGPIRLQVTVEDATSVLSSSSSAHVSLKIHPHCSIAALQDQVFSEFGFPPAVQRWVIGRCLCMPERSLASYGVSQDGDPAFLYLLSAPR
chain 3: SCGDPEKQRQDKMRKEGLQLVSMIQEGETAGASPEEVFSALQYSGTEVPLQWLRSELSYVLEMVAELAGQQDPELGAFSCQEARKAWLDRHGNLDEAVEECVRARRRKVHELQSLGFGPKEGSLQALFQHGGDVARALTELQRQRLEPFHQRLWDRDPEPTPCWD
B2: MBP-mSHARPIN UBL_(163–301) [mouse] / mHOIL-1L_(1–189)-strep [mouse] (parent complex)
chain 1: B1 chain 2
chain 2: MDEKTKKAEEMALSLARAVAGGDEQAAIKYATWLAEQRVPLRVQVKPEVSPTQDIRLCVSVEDAYMHTVTIWLTVRPDMTVASLKDMVFLDYGFPPSLQQWVVGQRLARDQETLHSHGIRRNGDGAYLYLLSARNTSLNPQELQRQRQLRMLEDLGFKDLTLQSRGPLEPVLPKPRTNQEPGQPDAAPE
B3: mHOIL-1L_(1–140) [mouse] / GST-mHOIP_(466–630) [mouse] (parent complex)
chain 1: B1 chain 1
chain 2: B1 chain 3
B4: mSHARPIN_(163–301) [mouse] / GST-mHOIP_(466–630) [mouse] (parent complex)
chain 1: B1 chain 2
chain 2: B1 chain 3

Variants of: B1
Test: SPR; response read at end of injection (about 180 s); GST-mHOIP D-UBA UBA1mut immobilized with anti-GST antibody; read off a plot

Row | response [RU] | Variant
1 | ~170 | chain 3 R9A, chain 3 L18A, chain 3 V21A

Variants of: B1
Test: SPR; response read at end of injection (about 180 s); GST-mHOIP D-UBA UBA2mut immobilized with anti-GST antibody; read off a plot

Row | response [RU] | Variant
2 | ~120 | chain 3 Q142A, chain 3 L146A, chain 3 F149A

Variants of: B2
Test: SPR; analyte 40 mM as printed in the legend; response read at end of injection (about 175 s); mHOIL-1L1-189-strep immobilized with anti-strep antibody; parent: 45; read off a plot

Row | response [RU] | Variant
3 | ~3 | chain 1 L14A, chain 1 I18A

Variants of: B3
Test: SPR; response read at end of injection (about 180 s); GST-mHOIP D-UBA UBA2mut immobilized with anti-GST antibody; read off a plot

Row | response [RU] | Variant
4 | ~-3 | chain 2 Q142A, chain 2 L146A, chain 2 F149A

Variants of: B3
Test: SPR; response read at end of injection (about 180 s); GST-mHOIP D-UBA UBA1mut immobilized with anti-GST antibody; read off a plot

Row | response [RU] | Variant
5 | ~60 | chain 2 R9A, chain 2 L18A, chain 2 V21A

Variants of: B4
Test: as above

Row | response [RU] | Variant
6 | ~0 | chain 2 R9A, chain 2 L18A, chain 2 V21A

Variants of: B4
Test: SPR; response read at end of injection (about 180 s); GST-mHOIP D-UBA UBA2mut immobilized with anti-GST antibody; read off a plot

Row | response [RU] | Variant
7 | ~5 | chain 2 Q142A, chain 2 L146A, chain 2 F149A
